The text below walks through data of the supplement of paper PMC11780869.

In the data set the test system is Bacillus subtilis. As to the kind of experiment: cleaved RNA product abundance (RNA/gDNA barcode ratio) relative to median wild-type variant (ratio to wild type); higher = more accumulation of the downstream cleavage product. Conditions: cleavage site: cggR-gapA (positions -7 to +36 mutated). Summed up:
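Cleaved product abundance for each construct is its RNA-to-gDNA barcode ratio, scaled to the median construct carrying the unmutated site. Cleaved RNA was isolated on a gel, reverse transcribed and barcode-sequenced, with genomic DNA barcodes sequenced alongside and UMIs collapsed. The reporters were truncated aprE or tetM mRNAs with barcoded, mutagenized RNase Y cleavage-site windows integrated into the B. subtilis chromosome, and cultures grew in LB at 37°C from OD600 0.0003 to 0.3.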

Setting [1] is: experiment (reporter, strain, medium): exp 4a: truncated aprE reporter, strain BJT201 with 2% xylose (RNase J1 expressed).
The mark [2] stands for this setting: experiment (reporter, strain, medium): exp 2b: truncated aprE reporter, strain BJT200.
The mark [3] stands for this setting: experiment (reporter, strain, medium): exp 6: tetM reporter, strain 168.

Consider “ACAGACGAAGGAGCCGCAAAGACGTTATTAAGGGATGAATAATCCCCCAATATAAATATCTCTCACTTATTTAAA”, for which the “cleaved RNA product abundance” value under setting [1] came out at 0.226.
On to “ACAGACGAAGGAGCCGCAAAGACGTTATTAAGGGATGAATAATCCCTCAAAATAAATATCTCTCACTTATTTAAA”, for which the “cleaved RNA product abundance” value under setting [2] was found to be 0.31.
With “ACAGACGAAGGAGCCGCAAAGACGTTATTAAGGGATGAATAATCCCTCAACATAAATATCTCTCACTTATTTAAA”, the “cleaved RNA product abundance” value under setting [1] was 0.316.
Regarding “ACAGACGAAGGAGCCGCAAAGACGTTATTAAGGGATGAATAATCCCTCAAGATAAATATCTCTCACTTATTTAAA”, under setting [1], the “cleaved RNA product abundance” value amounted to 0.205.
“ACAGACGAAGGAGCCGCAAAGACGTTATTAAGGGATGAATAATCCCTCAATATAAATATCTCTCACTTATTTAAA”: the “cleaved RNA product abundance” value was found to be 0.978 under setting [2], 1.02 under setting [1] and 1.12 under setting [3].
In the case of “ACAGACGAAGGAGCCGCAAAGACGTTATTAAGGGATGAATAATCCCTCAATATAGATATCTCTCACTTATTTAAA”, the “cleaved RNA product abundance” value under setting [1] was found to be 0.456.
Take “ACAGACGAAGGAGCCGCAAAGACGTTATTAAGGGATGAATAATCCCTCCATATAAATATCTCTCACTTATTTAAA”: under setting [2], the “cleaved RNA product abundance” value amounted to 0.338.
Take “ACAGACGAAGGAGCCGCAAAGACGTTATTAAGGGATGAATAATCCCTCGATATAAATATCTCTCACTTATTTAAA”: the “cleaved RNA product abundance” value under setting [1] stood at 0.386.
On to “ACAGACGAAGGAGCCGCAAAGACGTTATTAAGGGATGAATAATCCCTCTATATAAATATCTCTCACTTATTTAAA”, for which the “cleaved RNA product abundance” value under setting [1] was found to be 0.572.
For “ACAGACGAAGGAGCCGCAAAGACGTTATTAAGGGATGAATAATCCGTCAATATAAATATCTCTCACTTATTTAAA”, the “cleaved RNA product abundance” value under setting [1] is 0.192.
With “ACAGACGAAGGAGCCGCAAAGACGTTATTAAGGGATGAATAATCCTTCAATATAAATATCTCTCACTTATTTAAA”, the “cleaved RNA product abundance” value under setting [2] is 0.427.
For “ACAGACGAAGGAGCCGCAAAGACGTTATTAAGGGATGAATAATTCCTCAATATAAATATCTCTCACTTATTTAAA”, the “cleaved RNA product abundance” value under setting [1] was 0.944.
In the case of “ACAGACGAAGGAGCCGCAAAGACGTTATTAAGGGATGAATCATCCCTCAATATAAATATCTCTCACTTATTTAAA”, the “cleaved RNA product abundance” value under setting [2] is 0.89 and the “cleaved RNA product abundance” value under setting [1] amounted to 0.771.
As for “ACAGACGAAGGAGCCGCAAAGACGTTATTAAGGGATGACTAATCCCTCAATATAAATATCTCTCACTTATTTAAA”, the “cleaved RNA product abundance” value under setting [2] was found to be 0.561.
As for “ACAGACGAAGGAGCCGCAAAGACGTTATTAAGGGATGATTAATCCCTCAATATAAATATCTCTCACTTATTTAAA”, the “cleaved RNA product abundance” value under setting [1] stood at 0.779.
“ACAGACGAAGGAGCCGCAAAGACGTTATTAAGGGATTAATAATCCCTCAATATAAATATCTCTCACTTATTTAAA”: the “cleaved RNA product abundance” value reads like this: under setting [2], 0.747; under setting [1], 0.857.
Turning to “ACAGACGAAGGAGCCGCAAAGACGTTATTAAGGTATGAATAATCCCTCAATATAAATATCTCTCACTTATTTAAA”, the “cleaved RNA product abundance” value reads like this: under setting [2], 0.0832; under setting [1], 0.153.
Taken in the same sequence, the figures for “ACAGACGAAGGAGCCGCAAAGACGTTATTAATGGATGAATAATCCCTCAATATAAATATCTCTCACTTATTTAAA” were 0.115 and 0.115.
Turning to “ACAGACGAAGGAGCCGCAAAGACGTTATTAATGGATGAATAATCCTTCAATATAAATATCTCTCACTTATTTAAA”, the “cleaved RNA product abundance” value under setting [1] stood at 0.23.
As to “ACAGACGAAGGAGCCGCAAAGACGTTATTATGGGATGAATAATCCCTCAATATAAATATCTCTCACTTATTTAAA”, under setting [1], the “cleaved RNA product abundance” value stood at 0.284.
For the sequence “ACAGACGAAGGAGCCGCAAAGACGTTCTTAAGGGATGAATAATCCCTCAATATAAATATCTCTCACTTATTTAAA”, the “cleaved RNA product abundance” value under setting [1] stood at 0.231.
Still for that read-out and setting: the figure for “ACAGACGAAGGAGCCGCAAAGACGTTTTTAAGGGATGAATAATCCCTCAATATAAATATCTCTCACTTATTTAAA” is 0.44; for “ACAGACGAAGGAGCCGCAAAGACTTTATTAAGGGATGAATAATCCCTCAATATAAATATCTCTCACTTATTTAAA” it is 0.8; for “ACAGACGAAGGAGCCGCAAAGAGCTTATTAAGGGATGAATAATCCCTCAATATAAATATCTCTCACTTATTTAAA” it is 0.743.
As to “ACAGACGAAGGAGCCGCAAAGAGGTAATTAAGGGATGAATAATCCCTCAATATAAATATCTCTCACTTATTTAAA”, under setting [1], the “cleaved RNA product abundance” value was found to be 0.176.
For the sequence “ACAGACGAAGGAGCCGCAAAGAGGTTAATAAGGGATGAATAATCCCTCAATATAAATATCTCTCACTTATTTAAA”, under setting [1], the “cleaved RNA product abundance” value stood at 0.363.
On to “ACAGACGAAGGAGCCGCAAAGAGGTTATTAAAGGATGAATAATCCCTCAATATAAATATCTCTCACTTATTTAAA”, for which the “cleaved RNA product abundance” value under setting [2] stood at 0.166.
As to “ACAGACGAAGGAGCCGCAAAGAGGTTATTAAGAGATGAATAATCCCTCAATATAAATATCTCTCACTTATTTAAA”, under setting [1], the “cleaved RNA product abundance” value was 0.126.
Take “ACAGACGAAGGAGCCGCAAAGAGGTTATTAAGCGATGAATAATCCCTCAATATAAATATCTCTCACTTATTTAAA”: the “cleaved RNA product abundance” value under setting [1] worked out at 0.0624.
For “ACAGACGAAGGAGCCGCAAAGAGGTTATTAAGGCATGAATAATCCCTCAATATAAATATCTCTCACTTATTTAAA”, the “cleaved RNA product abundance” value under setting [2] stood at 0.0794.
In the case of “ACAGACGAAGGAGCCGCAAAGAGGTTATTAAGGGATAAATAATCCCTCAATATAAATATCTCTCACTTATTTAAA”, the “cleaved RNA product abundance” value under setting [1] worked out at 0.62.
Take “ACAGACGAAGGAGCCGCAAAGAGGTTATTAAGGGATGAATAATCACTCAATATAAATATCTCTCACTTATTTAAA”: under setting [1], the “cleaved RNA product abundance” value worked out at 0.102.
For the sequence “ACAGACGAAGGAGCCGCAAAGAGGTTATTAAGGGATGAATAATCCATCAATATAAATATCTCTCACTTATTTAAA”, the “cleaved RNA product abundance” value under setting [2] was 0.176.
With “ACAGACGAAGGAGCCGCAAAGAGGTTATTAAGGGATGAATAATCCCTAAATATAAATATCTCTCACTTATTTAAA”, the “cleaved RNA product abundance” value under setting [1] was 0.386.
For the sequence “ACAGACGAAGGAGCCGCAAAGAGGTTATTAAGGGATGAATAATCCCTCAATATAAATATCTCTCACTTATTTAAA”, the “cleaved RNA product abundance” value under setting [2] turned out to be 0.814, the “cleaved RNA product abundance” value under setting [1] stood at 0.754 and the “cleaved RNA product abundance” value under setting [3] was found to be 0.737.
Turning to “ACAGACGAAGGAGCCGCAAAGAGGTTATTAAGGGATGAATAATCCGTCAATATAAATATCTCTCACTTATTTAAA”, the “cleaved RNA product abundance” value under setting [1] worked out at 0.296.
Still for that read-out and setting: the figure for “ACAGACGAAGGAGCCGCAAAGAGGTTATTAAGGTATGAATAATCCCTCAATATAAATATCTCTCACTTATTTAAA” is 0.1.
On to “ACAGACGAAGGAGCCGCAAAGAGGTTATTAAGTGATGAATAATCCCTCAATATAAATATCTCTCACTTATTTAAA”, for which the “cleaved RNA product abundance” value under setting [1] was 0.0848.
For “ACAGACGAAGGAGCCGCAAAGAGGTTATTAATGGATGAATAATCCCTCAATATAAATATCTCTCACTTATTTAAA”, the “cleaved RNA product abundance” value is 0.13 under setting [2] and 0.0978 under setting [1].
On to “ACAGACGAAGGAGCCGCAAAGAGGTTATTTAGGGATGAATAATCCCTCAATATAAATATCTCTCACTTATTTAAA”, for which the “cleaved RNA product abundance” value under setting [1] turned out to be 0.527.
As to “ACAGACGAAGGAGCCGCAAAGATATTATTAAGGGATGAATAATCCCTCAATATAAATATCTCTCACTTATTTAAA”, the “cleaved RNA product abundance” value by setting is: under setting [2], 0.93; under setting [1], 0.459.
For the sequence “ACAGACGAAGGAGCCGCAAAGATGATATTAAGGGATGAATAATCCCTCAATATAAATATCTCTCACTTATTTAAA”, the “cleaved RNA product abundance” value runs as follows: under setting [2], 0.664; under setting [1], 0.676.
“ACAGACGAAGGAGCCGCAAAGATGCTATTAAGGGATGAATAATCCCTCAATATAAATATCTCTCACTTATTTAAA”: under setting [1], the “cleaved RNA product abundance” value stood at 0.848.
As for “ACAGACGAAGGAGCCGCAAAGATGTAATTAAGGGATGAATAATCCCTCAATATAAATATCTCTCACTTATTTAAA”, the “cleaved RNA product abundance” value under setting [1] is 0.427.
In the case of “ACAGACGAAGGAGCCGCAAAGATGTCATTAAGGGATGAATAATCCCTCAATATAAATATCTCTCACTTATTTAAA”, the “cleaved RNA product abundance” value under setting [1] was found to be 0.205.
Take “ACAGACGAAGGAGCCGCAAAGATGTTAATAAGGGATGAATAATCCCTCAATATAAATATCTCTCACTTATTTAAA”: the “cleaved RNA product abundance” value under setting [2] came out at 0.237 and the “cleaved RNA product abundance” value under setting [1] is 0.311.
On to “ACAGACGAAGGAGCCGCAAAGATGTTATAAAGGGATGAATAATCCCTCAATATAAATATCTCTCACTTATTTAAA”, for which the “cleaved RNA product abundance” value under setting [2] came to 0.259 and the “cleaved RNA product abundance” value under setting [1] came out at 0.441.
Turning to “ACAGACGAAGGAGCCGCAAAGATGTTATCAAGGGATGAATAATCCCTCAATATAAATATCTCTCACTTATTTAAA”, the “cleaved RNA product abundance” value under setting [2] worked out at 0.239 and the “cleaved RNA product abundance” value under setting [1] worked out at 0.328.
In the case of “ACAGACGAAGGAGCCGCAAAGATGTTATTAAAGGATGAATAATCCCTCAATATAAATATCTCTCACTTATTTAAA”, the “cleaved RNA product abundance” value under setting [1] was found to be 0.129.
In the case of “ACAGACGAAGGAGCCGCAAAGATGTTATTAACGGATGAATAATCCCTCAATATAAATATCTCTCACTTATTTAAA”, the “cleaved RNA product abundance” value by setting is: under setting [2], 0.104; under setting [1], 0.151.
Turning to “ACAGACGAAGGAGCCGCAAAGATGTTATTAAGAGATGAATAATCCCTCAATATAAATATCTCTCACTTATTTAAA”, the “cleaved RNA product abundance” value under setting [1] amounted to 0.156.
In the case of “ACAGACGAAGGAGCCGCAAAGATGTTATTAAGCGATGAATAATCCCTCAATATAAATATCTCTCACTTATTTAAA”, the “cleaved RNA product abundance” value turned out to be 0.0873 under setting [2] and 0.11 under setting [1].
Regarding “ACAGACGAAGGAGCCGCAAAGATGTTATTAAGGAATGAATAATCCCTCAATATAAATATCTCTCACTTATTTAAA”, the “cleaved RNA product abundance” value under setting [2] came to 0.102 and the “cleaved RNA product abundance” value under setting [1] stood at 0.145.
On the same counts, the results for “ACAGACGAAGGAGCCGCAAAGATGTTATTAAGGCATGAATAATCCCTCAATATAAATATCTCTCACTTATTTAAA” are 0.108 and 0.104.
